In general, Km refers to the substrate concentration at which the rate is half of its maximum. Usually kcat stands for the maximal rate divided by the concentration of active sites. For orientation: kcat/Km means the second-order rate constant that governs catalysis at low substrate concentration.

What all share (experiment): initial rates, A340 decrease or fluorescence
What all share (format): biochemical, [Clostridium] symbiosum
Common to all, as to settings: 20 mM 2-oxoglutarate, 100 mM NH4Cl, 0.1 M potassium phosphate pH 7.0, 25 °C

For series [1], the system named is T1, NC(=O)C1=CN([C@@H]2O[C@H](COP(=O)(O)OP(=O)(O)OC[C@H]3O[C@@H](n4cnc5c(N)ncnc54)[C@H](O)[C@@H]3O)[C@@H](O)[C@H]2O)C=CC1.
T1 construct: full-length recombinant wild-type gdh in ptac85, expressed in E. coli, purified on Remazol Red Sepharose; no tag mentioned
The text has this:
(§1) initial rates, A340 decrease or fluorescence on Clostridium symbiosum NAD^+-specific GDH (CsGDH)

Series [2] deals with T2, NC(=O)C1=CN([C@@H]2O[C@H](COP(=O)(O)OP(=O)(O)OC[C@H]3O[C@@H](n4cnc5c(N)ncnc54)[C@H](OP(=O)(O)O)[C@@H]3O)[C@@H](O)[C@H]2O)C=CC1.
T2 construct: full-length recombinant wild-type gdh in ptac85, expressed in E. coli, purified on Remazol Red Sepharose; no tag mentioned
Excerpt: as §1

Substrate in series [3]: NC(=O)C1=CN([C@@H]2O[C@H](COP(=O)(O)OP(=O)(O)OC[C@H]3O[C@@H](n4cnc5c(N)ncnc54)[C@H](O)[C@@H]3O)[C@@H](O)[C@H]2O)C=CC1
Excerpt: as §1

Substrate in series [4]: NC(=O)C1=CN([C@@H]2O[C@H](COP(=O)(O)OP(=O)(O)OC[C@H]3O[C@@H](n4cnc5c(N)ncnc54)[C@H](OP(=O)(O)O)[C@@H]3O)[C@@H](O)[C@H]2O)C=CC1
Excerpt: as §1

For “Clostridium symbiosum NAD^+-specific GDH (CsGDH) ([Clostridium] symbiosum; A243G)”, in series [1], the Km worked out at 25 ± 1 µM, the catalytic constant (kcat) came to 65.1 ± 1.6 s⁻¹ and the catalytic efficiency (kcat/Km) stood at 2.6e+06 M⁻¹ s⁻¹. For the same molecule, in series [2], the Km turned out to be 386 ± 50 µM, the catalytic constant (kcat) was 1.87 ± 0.01 s⁻¹ and the catalytic efficiency (kcat/Km) worked out at 4840 M⁻¹ s⁻¹.

Regarding “Clostridium symbiosum NAD^+-specific GDH (CsGDH) ([Clostridium] symbiosum; D264K)”, in series [1], the Km amounted to 23 ± 2 µM, the turnover number (kcat) turned out to be 80 ± 2.5 s⁻¹ and the kcat/Km is 3.48e+06 M⁻¹ s⁻¹. Further, in series [2], the Km was 107 ± 20 µM, the kcat turned out to be 26.3 ± 0.35 s⁻¹ and the kcat/Km came to 246000 M⁻¹ s⁻¹.

For the molecule “Clostridium symbiosum NAD^+-specific GDH (CsGDH) ([Clostridium] symbiosum; F239S)”, in series [1], the Km worked out at 40 ± 3 µM, the catalytic constant (kcat) was 139 ± 5 s⁻¹ and the kcat/Km amounted to 3.48e+06 M⁻¹ s⁻¹. In addition, in series [2], the Km was 230 ± 50 µM, the catalytic constant (kcat) was 11.1 ± 0.21 s⁻¹ and the kcat/Km came out at 48300 M⁻¹ s⁻¹.

In the case of “Clostridium symbiosum NAD^+-specific GDH (CsGDH) ([Clostridium] symbiosum; F239S/P263S)”, in series [1], the Km turned out to be 35 ± 10 µM, the catalytic constant (kcat) was determined as 105 ± 4 s⁻¹ and the kcat/Km was determined as 3e+06 M⁻¹ s⁻¹. In series [2], the Km was determined as 330 ± 20 µM, the kcat worked out at 83.3 ± 3.5 s⁻¹ and the catalytic efficiency (kcat/Km) worked out at 252000 M⁻¹ s⁻¹.

As for “Clostridium symbiosum NAD^+-specific GDH (CsGDH) ([Clostridium] symbiosum; P263S)”, in series [1], the Km turned out to be 47 ± 103 µM, the kcat came to 160 ± 8 s⁻¹ and the kcat/Km was determined as 3.4e+06 M⁻¹ s⁻¹. Moreover, in series [2], the Michaelis constant (Km) was determined as 110 ± 10 µM, the catalytic constant (kcat) was 62.5 ± 1.6 s⁻¹ and the specificity constant (kcat/Km) was determined as 568000 M⁻¹ s⁻¹.

B1: Clostridium symbiosum NAD^+-specific GDH (CsGDH) ([Clostridium] symbiosum) (protein)
chain: SKYVDRVIAEVEKKYADEPEFVQTVEEVLSSLGPVVDAHPEYEEVALLERMVIPERVIEFRVPWEDDNGKVHVNTGYRVQFNGAIGPYKGGLRFAPSVNLSIMKFLGFEQAFKDSLTTLPMGGAKGGSDFDPNGKSDREVMRFCQAFMTELYRHIGPDIDVPAGDLGVGAREIGYMYGQYRKIVGGFYNGVLTGKARSFGGSLVRPEATGYGSVYYVEAVMKHENDTLVGKTVALAGFGNVAWGAAKKLAELGAKAVTLSGPDGYIYDPEGITTEEKINYMLEMRASGRNKVQDYADKFGVQFFPGEKPWGQKVDIIMPCATQNDVDLEQAKKIVANNVKYYIEVANMPTTNEALRFLMQQPNMVVAPSKAVNAGGVLVSGFEMSQNSERLSWTAEEVDSKLHQVMTDIHDGSAAAAERYGLGYNLVAGANIVGFQKIADAMMAQGIAW
notes: full-length recombinant wild-type gdh in ptac85, expressed in E. coli, purified on Remazol Red Sepharose; no tag mentioned
Regarding B1, in series [3], the Km amounted to 20 ± 1 µM, the catalytic constant (kcat) was 130.2 ± 3.1 s⁻¹ and the specificity constant (kcat/Km) was 6.5e+06 M⁻¹ s⁻¹. In series [4], the Km was 90 ± 11 µM, the kcat is 2.87 ± 0.11 s⁻¹ and the kcat/Km worked out at 31900 M⁻¹ s⁻¹.

Values taken from publication PMC3157743, “An Examination by Site-Directed Mutagenesis of Putative Key Residues in the Determination of Coenzyme Specificity in Clostridial NAD^+-Dependent Glutamate Dehydrogenase” (Enzyme Research, 2011).
